Data as given in patent US12458691.

Legend:
[1] = target: FP8-KLH (HIV-1 strain BG505); assay: BLI (Octet), IgG on the sensor, apparent KD with IgG avidity
[2] = target: FP-LS (Aquifex aeolicus (strain VF5)) (UniProt O66529); assay: apparent KD (table head 'Apparent KD value (nM)'); Octet BLI with IgG on the sensor per paragraph 361
[3] = target: FP8-1Y12 (HIV-1 strain BG505); assay: BLI (Octet), IgG on the sensor, apparent KD with IgG avidity
[4] = target: FP8-3HSH (HIV-1 strain BG505); assay: as above
[5] = target: FP8-TTHc (sulfo-SIAB activation, 0.5:1 molar ratio) (HIV-1 strain BG505); assay: Octet, purified conjugate
FP8-TTHc (sulfo-SIAB activation, 0.5:1 molar ratio) (HIV-1 strain BG505), sequence (P04958 865-1315, tags left off): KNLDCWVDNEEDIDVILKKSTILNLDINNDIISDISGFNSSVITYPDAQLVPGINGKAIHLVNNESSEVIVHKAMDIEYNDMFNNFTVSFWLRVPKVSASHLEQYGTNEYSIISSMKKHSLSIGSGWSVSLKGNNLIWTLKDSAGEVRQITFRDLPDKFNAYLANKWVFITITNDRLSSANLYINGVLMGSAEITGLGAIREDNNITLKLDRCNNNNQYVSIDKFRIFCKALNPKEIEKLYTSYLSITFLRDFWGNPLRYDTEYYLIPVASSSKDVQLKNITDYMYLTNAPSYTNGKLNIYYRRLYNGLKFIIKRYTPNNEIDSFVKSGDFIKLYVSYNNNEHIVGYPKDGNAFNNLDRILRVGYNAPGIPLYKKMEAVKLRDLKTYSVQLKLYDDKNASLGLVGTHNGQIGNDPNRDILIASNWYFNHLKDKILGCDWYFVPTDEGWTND

[6] = target: FP8-TTHc (MBS activation, 1:1 molar ratio) (HIV-1 strain BG505); assay: Octet, purified conjugate
FP8-TTHc (MBS activation, 1:1 molar ratio) (HIV-1 strain BG505), sequence (P04958 865-1315, tags left off): as above

[7] = target: FP8-TTHc (sulfo-SIAB activation, 1:1 molar ratio) (HIV-1 strain BG505); assay: Octet, purified conjugate
FP8-TTHc (sulfo-SIAB activation, 1:1 molar ratio) (HIV-1 strain BG505), sequence (P04958 865-1315, tags left off): as above

[8] = target: FP8-1Y12 (HIV-1 strain BG505); assay: apparent KD; Octet BLI, antibody IgG on sensor (method per paragraph 361)
[9] = target: FP8-3HSH (HIV-1 strain BG505); assay: as above
[10] = target: His-tagged fusion peptide (residue 512-521) (HIV-1 strain BG505); assay: SPR, Fab over His-tagged fusion peptide on Ni-NTA chip, 1:1 fit

FP-LS (Aquifex aeolicus (strain VF5)), sequence (O66529 other isoform, or with tags, fused parts or gaps): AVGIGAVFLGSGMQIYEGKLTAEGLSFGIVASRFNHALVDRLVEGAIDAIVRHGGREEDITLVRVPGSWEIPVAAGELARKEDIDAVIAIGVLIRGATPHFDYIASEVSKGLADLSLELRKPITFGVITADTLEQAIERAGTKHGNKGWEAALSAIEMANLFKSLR
FP8-KLH (HIV-1 strain BG505), sequence (Q10583 17-3414): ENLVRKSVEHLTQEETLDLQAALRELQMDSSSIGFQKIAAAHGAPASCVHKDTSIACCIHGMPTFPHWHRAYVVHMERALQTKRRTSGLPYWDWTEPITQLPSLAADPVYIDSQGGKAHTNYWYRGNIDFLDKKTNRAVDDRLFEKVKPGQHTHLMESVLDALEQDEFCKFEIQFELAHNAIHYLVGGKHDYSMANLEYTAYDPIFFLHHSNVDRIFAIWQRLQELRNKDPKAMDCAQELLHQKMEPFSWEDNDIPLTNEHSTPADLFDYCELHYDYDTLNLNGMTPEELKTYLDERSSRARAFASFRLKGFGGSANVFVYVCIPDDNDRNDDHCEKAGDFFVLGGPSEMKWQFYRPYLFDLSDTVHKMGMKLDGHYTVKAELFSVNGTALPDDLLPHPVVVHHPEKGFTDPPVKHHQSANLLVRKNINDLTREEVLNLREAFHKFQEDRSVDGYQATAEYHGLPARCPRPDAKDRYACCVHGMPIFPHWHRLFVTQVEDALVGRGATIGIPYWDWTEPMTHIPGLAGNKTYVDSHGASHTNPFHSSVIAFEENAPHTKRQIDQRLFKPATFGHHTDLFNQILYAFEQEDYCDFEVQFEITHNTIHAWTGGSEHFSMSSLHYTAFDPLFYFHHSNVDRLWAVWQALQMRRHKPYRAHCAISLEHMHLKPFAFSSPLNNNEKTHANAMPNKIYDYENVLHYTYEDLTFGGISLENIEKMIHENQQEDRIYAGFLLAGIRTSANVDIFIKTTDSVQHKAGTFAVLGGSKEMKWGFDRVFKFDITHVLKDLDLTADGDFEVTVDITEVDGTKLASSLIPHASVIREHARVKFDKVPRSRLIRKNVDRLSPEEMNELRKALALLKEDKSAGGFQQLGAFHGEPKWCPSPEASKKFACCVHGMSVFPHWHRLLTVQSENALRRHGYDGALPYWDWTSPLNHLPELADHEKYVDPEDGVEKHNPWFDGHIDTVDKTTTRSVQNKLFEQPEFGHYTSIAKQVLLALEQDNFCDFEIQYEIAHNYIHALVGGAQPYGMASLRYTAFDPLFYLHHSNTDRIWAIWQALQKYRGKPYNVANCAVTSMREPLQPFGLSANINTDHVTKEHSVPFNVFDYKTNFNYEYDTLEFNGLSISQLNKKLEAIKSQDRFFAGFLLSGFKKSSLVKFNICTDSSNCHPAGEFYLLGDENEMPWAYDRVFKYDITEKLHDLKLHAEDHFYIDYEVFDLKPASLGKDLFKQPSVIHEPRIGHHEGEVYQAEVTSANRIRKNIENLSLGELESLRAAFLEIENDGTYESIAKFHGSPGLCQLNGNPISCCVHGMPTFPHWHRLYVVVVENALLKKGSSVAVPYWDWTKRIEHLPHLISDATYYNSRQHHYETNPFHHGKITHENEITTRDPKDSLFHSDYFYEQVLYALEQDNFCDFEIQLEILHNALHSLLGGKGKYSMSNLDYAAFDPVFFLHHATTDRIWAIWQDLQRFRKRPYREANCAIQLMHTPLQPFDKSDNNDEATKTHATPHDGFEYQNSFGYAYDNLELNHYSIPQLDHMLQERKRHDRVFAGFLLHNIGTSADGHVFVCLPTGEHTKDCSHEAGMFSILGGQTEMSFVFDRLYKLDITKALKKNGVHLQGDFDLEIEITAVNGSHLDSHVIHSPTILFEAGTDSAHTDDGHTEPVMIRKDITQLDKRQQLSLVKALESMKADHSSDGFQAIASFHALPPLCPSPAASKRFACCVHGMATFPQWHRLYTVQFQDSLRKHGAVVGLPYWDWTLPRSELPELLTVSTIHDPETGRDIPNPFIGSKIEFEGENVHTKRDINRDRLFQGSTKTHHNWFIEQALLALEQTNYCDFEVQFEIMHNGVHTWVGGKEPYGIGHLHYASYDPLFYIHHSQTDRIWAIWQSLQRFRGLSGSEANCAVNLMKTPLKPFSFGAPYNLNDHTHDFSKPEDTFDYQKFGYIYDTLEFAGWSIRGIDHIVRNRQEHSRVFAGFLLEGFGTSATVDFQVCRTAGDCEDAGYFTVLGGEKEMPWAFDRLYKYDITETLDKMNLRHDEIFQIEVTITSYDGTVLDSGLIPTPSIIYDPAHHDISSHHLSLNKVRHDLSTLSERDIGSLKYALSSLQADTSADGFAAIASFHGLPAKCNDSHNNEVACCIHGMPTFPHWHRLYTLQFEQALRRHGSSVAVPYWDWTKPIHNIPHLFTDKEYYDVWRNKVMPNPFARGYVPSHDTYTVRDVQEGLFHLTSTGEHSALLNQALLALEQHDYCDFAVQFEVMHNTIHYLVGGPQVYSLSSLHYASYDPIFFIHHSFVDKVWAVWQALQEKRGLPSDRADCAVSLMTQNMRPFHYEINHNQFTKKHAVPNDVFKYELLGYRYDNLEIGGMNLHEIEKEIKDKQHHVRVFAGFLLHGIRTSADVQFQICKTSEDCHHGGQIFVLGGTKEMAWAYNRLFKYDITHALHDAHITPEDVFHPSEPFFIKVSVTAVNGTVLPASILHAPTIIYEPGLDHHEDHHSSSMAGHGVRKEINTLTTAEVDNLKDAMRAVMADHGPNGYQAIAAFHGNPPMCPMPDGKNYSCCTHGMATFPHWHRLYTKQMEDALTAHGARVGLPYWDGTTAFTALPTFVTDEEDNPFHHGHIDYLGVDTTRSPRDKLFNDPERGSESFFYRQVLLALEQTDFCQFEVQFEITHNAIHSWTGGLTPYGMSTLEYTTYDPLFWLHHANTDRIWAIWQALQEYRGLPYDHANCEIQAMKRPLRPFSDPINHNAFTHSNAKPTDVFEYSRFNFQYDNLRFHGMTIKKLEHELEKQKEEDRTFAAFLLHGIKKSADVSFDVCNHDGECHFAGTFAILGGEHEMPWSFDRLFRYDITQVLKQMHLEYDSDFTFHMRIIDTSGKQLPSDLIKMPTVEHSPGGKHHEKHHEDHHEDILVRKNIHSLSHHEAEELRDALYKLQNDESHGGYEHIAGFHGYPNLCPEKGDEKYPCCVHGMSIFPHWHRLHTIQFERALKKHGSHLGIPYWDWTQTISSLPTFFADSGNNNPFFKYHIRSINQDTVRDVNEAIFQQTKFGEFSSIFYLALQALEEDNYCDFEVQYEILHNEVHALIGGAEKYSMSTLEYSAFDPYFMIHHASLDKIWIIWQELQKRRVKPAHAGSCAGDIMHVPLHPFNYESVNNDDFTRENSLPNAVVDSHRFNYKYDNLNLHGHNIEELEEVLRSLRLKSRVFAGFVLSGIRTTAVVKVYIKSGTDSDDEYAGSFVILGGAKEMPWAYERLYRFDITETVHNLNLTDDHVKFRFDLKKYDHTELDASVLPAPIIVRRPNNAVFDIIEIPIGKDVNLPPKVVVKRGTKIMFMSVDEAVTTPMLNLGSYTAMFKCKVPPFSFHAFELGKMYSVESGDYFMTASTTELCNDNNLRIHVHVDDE

ACS202 (antibody)
Kd [1]: < 0.001 nM

PGT151 (antibody)
Kd [2]: < 0.001 nM | Kd [3]: < 0.001 nM | Kd [4]: 47.2 nM | Kd [5]: 3.6 nM | Kd [6]: 2.3 nM | Kd [7]: 2.8 nM | Kd [8]: < 0.001 nM | Kd [9]: < 0.001 nM

VRC34.01 Fab
Kd [10]: 6.17 nM | koff [10]: 0.00924 s⁻¹ | kon [10]: 1.5e+06 M⁻¹ s⁻¹
